Measurements published in patent publication US20200057058A1 (MIT, published 2020).

What was measured:
streptavidin [1] = target: T1, streptavidin (UniProt P22629 37-163, limits assumed); assay: sandwich assay: SA in 50% urine, biotin-HRP/TMB detection
T1 construct: It was used without a stated label in the sandwich assays; also called SA

streptavidin [2] = target: T1, streptavidin; assay: sandwich assay: SA in 50% blood serum, biotin-HRP/TMB detection
[3] = target: monomeric streptavidin variant mSA2; assay: fluorescent binding curves, labeled mSA2 in 50% urine or 50% blood serum, 4 h
[4] = target: monomeric streptavidin variant mSA2; assay: fluorescent binding curve, labeled mSA2 in PBS, 4 h exposure; quadratic fit
Description: The binding function of rcSso7d.SA oligomer-PNIPAM thin films was measured using fluorescently-labeled monomeric streptavidin (mSA2) and fluorescently-labeled streptavidin (SA). Details for the expression, purification, and fluorescent labeling of mSA2 are provided below. Samples were prepared by serial dilution of SA or mSA2 in PBS (pH 7.4), human urine (diluted to 50% v/v in PBS, pH 7.4), or blood serum (obtained as the supernatant by centrifuging whole blood at 1500×g for 10 minutes, then diluted to 50% v/v in PBS, pH 7.4). 0.5 μL drops of solutions containing serially diluted fluorescent mSA2 and fluorescent SA samples in PBS (pH 7.4) were gently applied to the surface of each bioconjugate thin film. Films were incubated in a sealed chamber saturated with water vapor at room temperature to prevent to prevent drying of the applied fluorescent samples. […] Fluorescence microscopy images were acquired at 4× magnification using a Cy5 filter set and exposure time of 5000 ms on an Olympus IX-81 inverted fluorescence microscope with an AxioCam HRC CCD camera. Fluorescent intensity was calculated using ImageJ software⁶⁷ by determining the average fluorescent signal in a rectangular area of the fluorescent image free of defects and occupying no less than half of the full sample application area.
To evaluate how the apparent size-based diffusion properties translated to biosensing capabilities, binding curves were measured using SA and mSA2 solutions in buffer. Binding curves were fit with a quadratic model that is a function of three parameters: the average MFI per binding event a, the total concentration of binding sites [P]T, and the apparent dissociation constant K_{d,app} describing the binding equilibrium between analyte and binding sites within the thin film.

[5] = target: monomeric streptavidin variant mSA2; assay: fluorescent binding curve, labeled mSA2 in 50% blood serum, 4 h; quadratic fit
streptavidin [6] = target: T1, streptavidin; assay: apparent Kd (Kd,app); fluorescent binding curve, labeled SA in 50% urine, 4 h; quadratic fit
[7] = target: monomeric streptavidin variant mSA2; assay: apparent Kd (Kd,app); fluorescent binding curve, labeled mSA2 in 50% urine, 4 h; quadratic fit
streptavidin [8] = target: T1, streptavidin; assay: apparent Kd (Kd,app); fluorescent binding curve, labeled SA in 50% blood serum, 4 h; quadratic fit
[9] = target: monomeric streptavidin variant mSA2; assay: apparent Kd (Kd,app); fluorescent binding curve, labeled mSA2 in 50% blood serum, 4 h; quadratic fit
[10] = target: monomeric streptavidin variant mSA2; assay: fluorescent binding assay: labeled mSA2 in PBS applied to the protein monolayer, rinsed, fluorescence microscopy
Description: The binding function of rcSso7d.SA oligomer-PNIPAM thin films was measured using fluorescently-labeled monomeric streptavidin (mSA2) and fluorescently-labeled streptavidin (SA). Details for the expression, purification, and fluorescent labeling of mSA2 are provided below. Samples were prepared by serial dilution of SA or mSA2 in PBS (pH 7.4), human urine (diluted to 50% v/v in PBS, pH 7.4), or blood serum (obtained as the supernatant by centrifuging whole blood at 1500×g for 10 minutes, then diluted to 50% v/v in PBS, pH 7.4). 0.5 μL drops of solutions containing serially diluted fluorescent mSA2 and fluorescent SA samples in PBS (pH 7.4) were gently applied to the surface of each bioconjugate thin film. […] After 1 hour, films were thoroughly rinsed with water for 10 seconds (a time determined to be sufficient to remove unbound molecules from the film, see FIG. 33, dried under filtered airflow, and immediately analyzed for fluorescent signal. Fluorescence microscopy images were acquired at 4× magnification using a Cy5 filter set and exposure time of 5000 ms on an Olympus IX-81 inverted fluorescence microscope with an AxioCam HRC CCD camera. Fluorescent intensity was calculated using ImageJ software⁶⁷ by determining the average fluorescent signal in a rectangular area of the fluorescent image free of defects and occupying no less than half of the full sample application area. […]

T1 sequence (P22629 37-163 limits assumed): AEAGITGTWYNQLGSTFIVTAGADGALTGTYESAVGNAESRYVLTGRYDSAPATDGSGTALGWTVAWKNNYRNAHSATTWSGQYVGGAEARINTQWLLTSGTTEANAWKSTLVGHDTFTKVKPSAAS

B1: rcSso7d.SA monolayer (designed binder)
chain: MGSIHHHHHHSSGLVPRGSHMCATVKFTYQGEEKQVDISKIKIVARDGQYIDFKYDEGGGAYGYGWVSEKDAPKELLQMLEKQ
modifications: EDC/NHS-activated protein coupled to an amine-functionalized silicon wafer
notes: also called monomeric rcSso7d.SA; surface-immobilized rcSso7d.SA
LOD (streptavidin [1]): 32 nM
LOD (streptavidin [2]): 40 nM
sensitivity in the fluids relative to buffer [3]: ≤ 10 fold
[P]T (total concentration of binding sites) [4]: 0.35 nM
[P]T (total concentration of binding sites) [5]: 0.4 nM
Kd (streptavidin [6]): 47 µM
Kd [7]: 50 µM
Kd (streptavidin [8]): 40 µM
Kd [9]: 62 µM
EC50 (read off the curve) [10]: ~2 µM
